Measured values as given in publication PMC5153528.
Where “and” joins values, the source holds several entries; their conditions need not be identical. Identical values can stand only once.

Tests used:
Test in all cases: SPR; IgG covalently coupled (sNHS/EDC, printed at four densities, sodium acetate pH 4.5-5.0) on a carboxymethyldextran prism (IBIS MX96 array); FcγR injected as analyte, eight part threefold dilution series generally starting between 18 and 41 µM; running buffer PBS + 0.01% BSA + Tween 20; global kinetic analysis, 1:1 model; two experiments with different preparations of FcγR
[1] = target: recombinant monoclonal rhesus macaque IgG1 (MM IgG1), anti-CD8α (rhesus macaque (Macaca mulatta))
[2] = target: recombinant monoclonal rhesus macaque IgG2 (MM IgG2), anti-CD8α (rhesus macaque (Macaca mulatta))
[3] = target: recombinant monoclonal rhesus macaque IgG3 (MM IgG3), anti-CD8α (rhesus macaque (Macaca mulatta))
[4] = target: recombinant monoclonal rhesus macaque IgG4 (MM IgG4), anti-CD8α (rhesus macaque (Macaca mulatta))

| Substance | Kd [1] | Kd [2] | Kd [3] | Kd [4] |
| --- | --- | --- | --- | --- |
| human FcγRIIIa F158 (from UniProt P08637 17-254) (receptor) | 4 µM and 8 µM | 48 µM and 15 µM | 78 µM and 33 µM | 48 µM and 17 µM |
| human FcγRIIIa V158 (receptor) | 4 µM and 5 µM | 21 µM and 14 µM | 84 µM and 27 µM | 29 µM |
| human FcγRIIIb NA1 (from UniProt O75015 17-200) (receptor) | 18 µM and 14 µM | 700 µM and 250 µM | 700 µM and 210 µM | 500 µM and 120 µM |
| human FcγRIIIb NA2 (from UniProt O75015 17-200) (receptor) | 13 µM and 15 µM |  | 510 µM and 270 µM | 730 µM and 270 µM |
| human FcγRIIIb SH (from UniProt O75015 17-200) (receptor) | 15 µM and 9 µM | 530 µM and 80 µM | 740 µM and 350 µM | 465 µM and 340 µM |
| human FcγRIIa H131 (from UniProt P12318 34-317) (receptor) | 7 µM and 9 µM | 11 µM | 27 µM and 16 µM | 20 µM and 23 µM |
| human FcγRIIa R131 (receptor) | 21 µM and 9 µM | 41 µM and 32 µM | 25 µM and 11 µM | 20 µM and 11 µM |
| human FcγRIIb/c (from UniProt P31994 43-310) (receptor) | 53 µM and 36 µM | 90 µM and 125 µM | 46 µM and 38 µM | 33 µM and 32 µM |
